Assay [1] has as its target T1, human KLRB1 extracellular domain (ECD), amino acids 67-225 of human KLRB1 protein (human, UniProt Q12918 67-225).
T1 construct: Soluble analyte in SPR; also called KLRB1 ECD; CD161 ECD
T1 sequence: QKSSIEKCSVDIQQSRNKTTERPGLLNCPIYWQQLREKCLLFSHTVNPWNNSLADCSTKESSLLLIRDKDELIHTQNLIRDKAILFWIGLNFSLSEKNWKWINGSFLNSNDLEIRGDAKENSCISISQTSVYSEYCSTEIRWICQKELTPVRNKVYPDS
Kind of assay: SPR (Biacore 8K), antibody fixed on chip, human KLRB1 ECD as analyte. On the procedure: (§1) Various humanized antibodies derived from humanized variants of antibody 10A3D6 with human IgG1-kappa were produced in CHO cells and then assayed for binding against human KLRB1 extracellular domain (ECD) via surface plasma resonance (SPR). Human KLRB1 extracellular domain was amino acids 67-225 from human KLRB1 protein (SEQ ID NO: 1). […] Antibody was fixed to the chip and analyte of human KLRB1 extracellular domain (ECD) was flowed over the surface at 30 ul/min, with contact time 120 seconds and dissociation time 360 seconds. The results are shown from two separate experiments in Tables 20 and 21.
(In SPR one partner is held on a chip, and binding of the other changes the refractive index at the surface.)

The target in assay [2] is T2, human KLRB1 expressed on CHO-hum-KLRB1 cells (human, UniProt Q12918 1-225).
T2 sequence: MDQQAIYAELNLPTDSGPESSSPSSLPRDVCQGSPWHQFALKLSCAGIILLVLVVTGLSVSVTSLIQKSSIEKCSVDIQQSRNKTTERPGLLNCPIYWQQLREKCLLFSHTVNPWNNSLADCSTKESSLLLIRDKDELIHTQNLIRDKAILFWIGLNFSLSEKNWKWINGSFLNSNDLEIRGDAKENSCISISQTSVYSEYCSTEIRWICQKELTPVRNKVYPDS
As to the kind of experiment: cell-based or functional assay.

Assay [3] addresses T2, human KLRB1 expressed on CHO-hum-KLRB1 …. As to the kind of experiment: cell-based or functional assay. The source holds these as a separate data set.
Assay [4] concerns the target T1, human KLRB1 extracellular domain (ECD), …. As to the kind of experiment: SPR (Biacore 8K), antibody fixed on chip, human KLRB1 ECD as analyte; second experiment. On the procedure:
as §1

The text below walks through data of patent US20260258139A1 (BRIGHAM AND WOMEN S HOSPITAL, published 2026).

Numbering of substitutions follows the chain as printed.

B1: antibody 11.45 (antibody, human IgG1, kappa, V domains shown)
VH: QVQLVQSGAEVKKPGASVKVSCKASGYTFTGYTMNWVRQAPGQGLEWMGLINPSSGGTYYNQKFKDRVTMTRDTSISTAYMELSRLRSDDTAVYYCARLGDNYRGYFDYWGQGTTVTVSS
VL: DIQLTQSPSFLSASVGDRVTITCKASQDVGTAVVWYQQKPGKAPKLLIDWASIRHTGVPSRFSGSGSGTEFTLTISSLQPEDFATYYCQQYSTYLYTFGGGTKLEIKR
notes: Human IgG1-kappa produced in CHO cells
As for B1, in assay [1], binding was put at a Kd of 1.26 nM, the koff came to 0.000227 s⁻¹ and the kon stood at 181000 M⁻¹ s⁻¹.

B2: 10A3D6hum2.2 (antibody, human IgG1, V domains shown)
VH: B1 VH with T28S, G44N, M48I, S54N, S55T, M70L, R72V, Y109S
VL: DIQLTQSPSFLSASVGDRVTITCKASQDVGTAVVWYQQKPGKAPKLLIDWASIRHTGVPSRFSGSGSGTEFTLTISSLQPEDFADYFCQQYSTYLYTFGGGTKLEIK
notes: tested as human IgG1-kappa produced in CHO cells
As for B2, the “EC50 for ADCC (target cell lysis, LDH release)” value (“EC50 for ADCC” for short) in assay [2] was 0.0048 nM. Also, the “Span (fitted span of the ADCC dose-response curve, % target cell lysis of CHO-K1/human KLRB1 cells with PBMCs, E:T=25:1)” value in assay [3] was 74.2 % Target Cell Lysis (axis; the table prints no unit). In assay [1], this molecule returned a Kd of 0.263 nM, a koff of 8.18e-05 s⁻¹ and an association rate constant (kon) of 311000 M⁻¹ s⁻¹.

B3: antibody 13.4 (antibody, human IgG1, kappa, V domains shown)
VH: B1 VH with S55T
VL: EIVMTQSPATLSVSPGERATLSCRASQDVGTAVVWYQQKPGQAPRLLIDWASIRHTGIPARFSGSGSGTEFTLTISSLQSEDFAVYYCQQYSTWPLTFGGGTKVEIKR
notes: as for B1
With B3, in assay [4], the affinity, expressed as Kd, was 14.6 nM; the koff stood at 0.00217 s⁻¹; the kon worked out at 149000 M⁻¹ s⁻¹.

B4: antibody 13.5 (antibody, human IgG1, kappa, V domains shown)
VH: B1 VH with S55T
VL: B3 VL with D28S
notes: as for B1
In assay [4], B4 returned a Kd of 20.3 nM, a koff of 0.00177 s⁻¹ and a kon of 87300 M⁻¹ s⁻¹.

B5: antibody 11.44.1 (antibody, human IgG1, kappa, V domains shown)
VH: B1 VH with T28S, Y109V
VL: B1 VL
notes: as for B1
In assay [1], B5 had a Kd of 1.09 nM, a koff of 0.000234 s⁻¹ and a kon of 215000 M⁻¹ s⁻¹.

B6: antibody 11.27 (antibody, human IgG1, kappa, V domains shown)
VH: B1 VH with T28S, S55T, Y109S
VL: B1 VL with T85D, Y87F
notes: as for B1
In assay [1], B6 registered a Kd of 0.314 nM, a dissociation rate constant (koff) of 0.000123 s⁻¹ and a kon of 391000 M⁻¹ s⁻¹.

B7: antibody 12.2 (antibody, human IgG1, kappa, V domains shown)
VH: B1 VH with S55T
VL: B1 VL with K24R, D28G, V29I, G30S, T31S, A32Y, V33L, V34A
notes: as for B1
In assay [4], B7 displayed a Kd of 1.54 nM, a koff of 0.000236 s⁻¹ and a kon of 153000 M⁻¹ s⁻¹.

B8: 10A3D6hum1.2 (antibody, human IgG1, V domains shown)
VH: B1 VH with T28S, S54N, S55T, Y109S
VL: B2 VL
notes: as for B2
In assay [4], B8 showed a Kd of 0.344 nM, a koff of 0.000107 s⁻¹ and a kon of 310000 M⁻¹ s⁻¹. Further, the “EC50 for ADCC” value in assay [2] was determined as 0.0058 nM. Further, the “Span (fitted span of the ADCC dose-response curve, % target cell lysis of CHO-K1/human KLRB1 cells with PBMCs, E:T=25:1)” value in assay [3] is 75 % Target Cell Lysis (axis; the table prints no unit). In assay [1], this molecule gave a Kd of 0.279 nM, a koff of 0.000135 s⁻¹ and a kon of 485000 M⁻¹ s⁻¹.

B9: 10A3D6hum8.2 (antibody, human IgG1, V domains shown)
VH: B1 VH with T28S, G44N, M48I, S54A, S55T, M70L, R72V, Y109V
VL: B2 VL
notes: as for B2
In assay [1], B9 registered a Kd of 0.512 nM, a koff of 0.000171 s⁻¹ and a kon of 335000 M⁻¹ s⁻¹.

B10: antibody 12.1.3 (antibody, human IgG1, kappa, V domains shown)
VH: B1 VH with S55T
VL: B1 VL with K24R, D28G, V29I, T31S
notes: as for B1
For the molecule B10, in assay [4], the Kd came to 1.75 nM, the dissociation rate constant (koff) was determined as 0.000248 s⁻¹ and the kon stood at 141000 M⁻¹ s⁻¹.

B11: antibody 13.2 (antibody, human IgG1, kappa, V domains shown)
VH: B1 VH with S55T
VL: B3 VL with W94Y, P95L, L96Y
notes: as for B1
In assay [4], B11 yielded a Kd of 0.444 nM, a koff of 0.000133 s⁻¹ and a kon of 300000 M⁻¹ s⁻¹. Moreover, in assay [2], the “EC50 for ADCC” value is 0.0083 nM. The “Span (fitted span of the ADCC dose-response curve, % target cell lysis of CHO-K1/human KLRB1 cells with PBMCs, E:T=25:1)” value in assay [3] is 77.8 % Target Cell Lysis (axis; the table prints no unit).

B12: antibody 11.29 (antibody, human IgG1, kappa, V domains shown)
VH: B1 VH with T28S, Y109S
VL: B1 VL with T85D, Y87F
notes: as for B1
As to B12, in assay [1], the Kd came to 0.743 nM, the koff was 0.000207 s⁻¹ and the kon amounted to 278000 M⁻¹ s⁻¹.

B13: antibody 11.57 (antibody, human IgG1, kappa, V domains shown)
VH: B1 VH
VL: B1 VL with K24R, T31S, T56S
notes: as for B1
In assay [4], B13 had a Kd of 2.52 nM, a koff of 0.000308 s⁻¹ and a kon of 122000 M⁻¹ s⁻¹. In assay [1], the Kd was found to be 2.08 nM, the koff was found to be 0.000308 s⁻¹ and the kon stood at 148000 M⁻¹ s⁻¹.

B14: antibody 11.54 (antibody, human IgG1, kappa, V domains shown)
VH: B1 VH with T28S
VL: B1 VL with T31S, T56S
notes: as for B1
Take B14: in assay [1], the Kd is 2.24 nM, the koff came to 0.000315 s⁻¹ and the kon was found to be 141000 M⁻¹ s⁻¹.

B15: antibody 12.0 (antibody, human IgG1, kappa, V domains shown)
VH: B1 VH with S55T
VL: B1 VL with K24R
notes: as for B1
In assay [4], B15 displayed a Kd of 0.597 nM, a koff of 0.000145 s⁻¹ and a kon of 243000 M⁻¹ s⁻¹. For the same molecule, in assay [2], the “EC50 for ADCC” value was found to be 0.0054 nM. Moreover, the “Span (fitted span of the ADCC dose-response curve, % target cell lysis of CHO-K1/human KLRB1 cells with PBMCs, E:T=25:1)” value in assay [3] was 80.8 % Target Cell Lysis (axis; the table prints no unit).

B16: antibody 13.6 (antibody, human IgG1, kappa, V domains shown)
VH: B1 VH with S55T
VL: B3 VL with D28S, A32N, V33L, V34A
notes: as for B1
In assay [4], B16 returned a Kd of 44.8 nM, a koff of 0.00269 s⁻¹ and a kon of 60000 M⁻¹ s⁻¹.

B17: antibody 11.12 (antibody, human IgG1, kappa, V domains shown)
VH: B1 VH with T28S, S54N, S55T
VL: B1 VL with T85D, Y87F
notes: as for B1
In assay [1], B17 had a Kd of 0.275 nM, a koff of 0.00012 s⁻¹ and a kon of 434000 M⁻¹ s⁻¹.

B18: antibody 11.55 (antibody, human IgG1, kappa, V domains shown)
VH: B1 VH with T28S
VL: B1 VL with K24R
notes: as for B1
Turning to B18, in assay [1], the Kd amounted to 1.23 nM, the koff was 0.00022 s⁻¹ and the kon came to 180000 M⁻¹ s⁻¹.

B19: antibody 12.3 (antibody, human IgG1, kappa, V domains shown)
VH: B1 VH with S55T
VL: DIQLTQSPSFLSASVGDRVTITCRASQGISSYLAWYQQKPGKAPKLLIYWASIRHTGVPSRFSGSGSGTEFTLTISSLQPEDFATYYCQQLSTYPYTFGGGTKLEIKR
notes: as for B1
For the molecule B19, in assay [4], binding was put at a Kd of 68.8 nM, the koff stood at 0.00135 s⁻¹ and the kon was 19700 M⁻¹ s⁻¹.

B20: antibody 11.41.1 (antibody, human IgG1, kappa, V domains shown)
VH: B1 VH with T28S, S55T, Y109V
VL: B1 VL
notes: as for B1
As for B20, in assay [1], binding was characterised by a dissociation constant (Kd) of 0.414 nM, the koff was found to be 0.000167 s⁻¹ and the kon came out at 403000 M⁻¹ s⁻¹.

What is called Kd is the constant that tells how readily two partners part at equilibrium. A low value points to a tighter complex. As usually defined, the koff is the rate constant with which the complex falls apart. High values mean a short-lived complex, low ones a long-lived complex. Usually kon stands for a measure of how fast the partners come together.
